In this assay the target is SARS-CoV-2 spike receptor-binding domain (RBD), wild type, residues 333-529 (SARS-CoV-2 Wuhan-Hu-1 (wild type), UniProt P0DTC2). Nature of the assay: crystal structure.

B1: CC25.56 Fab with the […] elbow variant (for crystallization) (Fab, V domains shown)
VH: EVQLVQSGAEVKKPGESLKISCKGSGYTFTRHWIGWVRQMPGKGLEWMGVIYPGDSDTRYSPSFQGQVTVSADKSISTAYLQWSSLKASDTAMYFCARGGIAVASGAFDIWGQGTMVTVFN
VL: QSALTQPPSVSVAPGKTARITCGGNNIGSKSVHWYQQKAGQAPVVVIYYPSDRPSGIPERFSGSNSENTATLTISGVEAGDEADYYCQLWDTNSDHWVFGGGTKLTVL
Turning to B1, the binding result is “binds”.

B2: CC25.4 Fab with the VSRRLP elbow variant (for crystallization) (Fab, V domains shown)
VH: QVQLVQSGAEVKKPGASVKVSCKASGYTFTDYFLHWVRQAPGQGLEWMGWINPDSGGTNYAQRFQGRVTMTRDTSISTAYMEVSRLRSDDTAVYYCARDNERYQMQNYYHYYGMDVWGQGTTVTVVS
VL: not shown
Turning to B2, the binding result was “binds”.

B3: CC25.43 Fab with the […] elbow mutation and a shortened kappa FG loop (for crystallization) (Fab, V domains shown)
VH: EVQLVESGGGLVQPGGSLKLSCSASGFTLSDSAMHWVRQASGKGLEWVGRISSNVNNDATVYAASLKGRFTISRDESKNMAYLQMNSLKNEDTAVYYCTVVPVLEYYQYGMDVWGQGTTVTIFN
VL: DIQLTQSPSTLSASVGDRVIITCRASQSISTWLAWYQQRPGQAPKLLIYKASILQSGVPPRFSGSGSGTDFTLTISRLQPDDFATYYCQQYDSDSQPLTFGGGTKLEIK
With B3, the binding result is “binds”.

The record behind these values is publication PMC10168401 (bioRxiv, 2023).
